Paper PMC3782296 (Journal of molecular biology, 2011)

Target: the molecule itself
Experiment: cross-linking

B1: wild-type human Tom40A lacking amino acid residues 1 to 82 (hTom40AΔ1-82) (domain or fragment, UniProt O96008 83-361, looked up)
chain: FEECHRKCKELFPIQMEGVKLTVNKGLSNHFQVNHTVALSTIGESNYHFGVTYVGTKQLSPTEAFPVLVGDMDNSGSLNAQVIHQLGPGLRSKMAIQTQQSKFVNWQVDGEYRGSDFTAAVTLGNPDVLVGSGILVAHYLQSITPCLALGGELVYHRRPGEEGTVMSLAGKYTLNNWLATVTLGQAGMHATYYHKASDQLQVGVEFEASTRMQDTSVSFGYQLDLPKANLLFKGSVDSNWIVGATLEKKLPPLPLTLALGAFLNHRKNKFQCGFGLTIG
stoichiometry N: 2
